Measurements as given in PMC5698462, “Production of recombinant human procollagen type I C-terminal propeptide and establishment of a sandwich ELISA for quantification” (Scientific Reports, 2017).

B1: Procollagen type I carboxy-terminal propeptide α2 chain (PICPα2), residues 1120–1366, with N-terminal c-myc tag (domain or fragment, human, UniProt P08123 1120-1366, looked up)
chain: DQPRSAPSLRPKDYEVDATLKSLNNQIETLLTPEGSRKNPARTCRDLRLSHPEWSSGYYWIDPNQGCTMDAIKVYCDFSTGETCIRAQPENIPAKNWYRSSKDKKHVWLGETINAGSQFEYNVEGVTSKEMATQLAFMRLLANYASQNITYHCKNSIAYMDEETGNLKKAVILQGSNDVELVAEGNSRFTYTVLVDGCSKKTNEWGKTIIEYKTNKPSRLPFLDIAPLDIGGADQEFFVDIGPVCFK
notes: C-terminal propeptide of the human type I procollagen α2 chain, residues 1120–1366 (residue numbers of type I procollagen); a restriction site was removed by a silent mutation; Cloned into pSecTag2A (AscI/ApaI) for secretion; also called c-myc-tagged PICPα2; source: HEK293F, transiently co-transfected with the PICPα1 plasmid (PICPα1:PICPα2 2:1 molar ratio), secreted; co-purified from culture …
B2: Procollagen type I carboxy-terminal propeptide α1 chain (PICPα1), residues 1218–1464, with N-terminal 8× His tag (domain or fragment, human, UniProt P02452 1218-1464, looked up)
chain: ADDANVVRDRDLEVDTTLKSLSQQIENIRSPEGSRKNPARTCRDLKMCHSDWKSGEYWIDPNQGCNLDAIKVFCNMETGETCVYPTQPSVAQKNWYISKNPKDKRHVWFGESMTDGFQFEYGGQGSDPADVAIQLTFLRLMSTEASQNITYHCKNSVAYMDQQTGNLKKALLLQGSNEIEIRAEGNSRFTYSVTVDGCTSHTGAWGKTVIEYKTTKTSRLPIIDVAPLDVGAPDQEFGFDVGPVCFL
notes: C-terminal propeptide of the human type I procollagen α1 chain, residues 1218–1464 (residue numbers of type I procollagen); Cloned into pSecTag2A (AscI/ApaI) for secretion; Two copies of this chain stand with one PICPα2 chain in the disulfide-linked PICP heterotrimer; also called 8× His-tagged PICPα1; recombinant PICPα1 chain; source: HEK293F, transiently co-transfected with the PICPα2 plasmid at …

Assays:
[1] = molecular target: B2; experiment: pull-down; Ni-NTA purification through the 8× His tag on PICPα1 from culture supernatant of HEK293F cells co-transfected with PICPα1 and PICPα2 plasmids (2:1); western blot with anti-His and anti-c-myc antibodies, non-reducing and reducing SDS-PAGE; conditions: partners not purified
[2] = molecular target: B1; experiment: non-reducing and reducing SDS-PAGE (stain, western blot) and SDS-CGE; purified proteins run under non-reducing and reducing conditions; band intensity (ImageJ) and peak area (Agilent 2100 bioanalyzer, Protein 230 kit) quantified; disulfide-linked trimers; conditions: both partners purified
[3] = molecular target: the molecule itself; experiment: SEC; Superdex 200 10/300 GL; purified PICP (2 mg/mL) in TBS (500 mM NaCl, 2.7 mM KCl, 12 mM Tris, pH 7.4); purified PIIICP in PBS pH 7.4; apparent molecular weight against standard markers

B1: binds [1].

For B2, the “stoichiometry N” value [2] was 2 PICPα1 chains per PICPα2 chain.

B3: Procollagen type III C-terminal propeptide (PIIICP), homotrimer of PIIICPα1 (residues 1222–1466) with N-terminal 8× His tag (domain or fragment, human, UniProt P02461 1222-1466, looked up)
chain: DEPMDFKINTDEIMTSLKSVNGQIESLISPDGSRKNPARNCRDLKFCHPELKSGEYWVDPNQGCKLDAIKVFCNMETGETCISANPLNVPRKHWWTDSSAEKKHVWFGESMDGGFQFSYGNPELPEDVLDVHLAFLRLLSSRASQNITYHCKNSIAYMDQASGNVKKALKLMGSNEGEFKAEGNSKFTYTVLEDGCTKHTGEWSKTVFEYRTRKAVRLPIVDIAPYDIGGPDQEFGVDVGPVCFL
notes: C-terminal propeptide of the human type III procollagen α1 chain, residues 1222–1466; Mammalian secretion plasmid; also called 8× His-tagged PIIICPα1; recombinant PIIICP; source: HEK293F, transiently transfected, secreted; purified from culture supernatant (Ni-NTA); not shown: 8× His, N-terminal, kept
B3 was tested, and the “stoichiometry N” value [3] was 3.
